Assay results: PMC9872726 (Nature cell biology, 2022)

Biological target: HSPB1 wild-type (human, UniProt P04792 1-205)
Assay: NMR titration

HSPB1 wild-type, sequence (P04792 whole entry): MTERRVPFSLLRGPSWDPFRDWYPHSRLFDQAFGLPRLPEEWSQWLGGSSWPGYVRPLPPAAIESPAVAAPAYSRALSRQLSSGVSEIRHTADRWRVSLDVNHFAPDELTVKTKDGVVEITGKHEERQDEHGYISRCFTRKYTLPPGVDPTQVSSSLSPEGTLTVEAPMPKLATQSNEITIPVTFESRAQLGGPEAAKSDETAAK

binding result: binds
B1: TDP-43 LCD (domain or fragment, UniProt Q13148 274-414, looked up)
chain: GRFGGNPGGFGNQGGFGNSRGGGAGLGNNQGSNMGGGMNFGAFSINPAMMAAAQAALQSSWGMMGMLASQQNQSGPSGNNQNQGNMQREPNQAFGSGNNSYSGSNSGAAIGWGSASNAGSGSGFNGGFGSSMDSKSSGWGM
